The supplement of paper PMC12764529
± gives the half width of the 95% confidence interval.

assay: folding stability dG unfold from trypsin proteolysis; higher = more stable
Outline: (§1)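 Unfolding free energy was derived, per protease or combined, against a sequence-predicted unfolded-state K50 and a shared folded-state K50, starting from K50 inferred by Bayesian fitting of sequencing counts. Digestion with trypsin and chymotrypsin was carried out on designed mini-proteins under 80 residues without cysteine in a PA-tagged cDNA display construct. Only designs with AlphaFold2 dimer inter-PAE above 15 were kept.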

Sequence | folding stability dG unfold
SAGGMKVEVEVDPETGELYLKIYFPETGEVALVKIDPKTKTAEVVGSTDFVKEALPELGINNPTLVPGSAGG [r13_511_TrMRF] | 1.06 ± 0.051 kcal/mol
SAGGSAGGSAGGKEPKKVKVYLFNENGELIGVFELEVETLEELEEAVRKLGFLAVVEPESAGGSAGGSAGGS [r10_958_TrMRF] | 4.14 ± 0.096 kcal/mol
SAGGSAGGSAGKIVILVEPSVEELKAAAEALPGAKVTLEEVEVDGRKYLLATIELPPELLSAGGSAGGSAGG [r17_542_TrROS_Hall] | 2.17 ± 0.074 kcal/mol
SEIEIEPLTLDEPVEYRVPEGGFTITAYAAPGPLLVRVRIPGTGEEFEIAVPLGEPNWEEVAEAVVRAIRSA [r9_982_TrMRF] | 1.759 ± 0.015 kcal/mol
SAGGSAGGSPSVPPEWKVEIVEVTVHPDGSTVTAVIRFEDGSTVTVNSPEALARLVEGGNVVNSAGGSAGGS [r12_455_TrMRF] | 1.12 ± 0.047 kcal/mol
SAGGPPVTIMIRLPPLQEQLPPEWLEKLKNIRVPNGHPIKDIDVQPHNGRWVIMIKVDSPEQARDIIRSAGG [r13_269_TrROS] | 1.66 ± 0.048 kcal/mol
SAGGAMSSPVGTVTLTSPAGETVTITVYPGKTEVTTRPPDGSVTVTSLADKSVEEVIAELKAEGYEVLSSAG [r5_613_JUSTAS] | 4 ± 0.18 kcal/mol
SAGGSAGGSAGGSMIVLNVPREVAEKIKEELIKKGIDPEKVKVIYIEVPLPEEPPESILSAGGSAGGSAGGS [r10_602_JUSTAS] | 0.798 ± 0.067 kcal/mol
SAGGKNLKPIGTVTLTNPKGEKVEIVEFEGPVFVVLTPKDGSKKIVSAEGKSLEEILKELEKEGYEVEPSAG [r5_613_TrMRF] | 1.22 ± 0.061 kcal/mol
SAGGSAAPEDTLVEEEVEIVTEETDPKLGGKKIVTTKVKRLIRYFPEKGELEVETVETETTVYPNESAGGSA [r15_517_JUSTAS] | -0.644 ± 0.47 kcal/mol
SAGGSAGGSTLRLRFRTPDGRLFEIEAEVRPDPDGRVYRLLRIREYDPETDEWLERPFRLPILSAGGSAGGS [r12_57_TrMRF] | 3.77 ± 0.12 kcal/mol
KKKTIEIIFPENNLIIKIEVDEETGKELTEEEIKKLLEELFPGKDIEKMSIEEIAKRLASLPGVKKVEIYPS [r1_463_TrROS_Hall] | 3.19 ± 0.09 kcal/mol
SAGGSAGGSAGGYSAIIIFPTEFDNKLYYAAVELESPSEELHEGDIKSVILAPLNTPILSAGGSAGGSAGGS [r10_730_TrMRF] | 1.93 ± 0.096 kcal/mol
SAGGSAGGSAKKITIYLPNAEVVEVEYDEETDVITIRVKNEDGSEYEFRFYPDGSVEIRPVSAGGSAGGSAG [r3_348_TrROS_Hall] | 2.95 ± 0.16 kcal/mol
SAGGKEVKIKIETKTLPNGVKVVKMTVELPDGKTVEMVMVENKKTGKMVMFEVKLDKNGKIVEIKAFPSAGG [r13_323_TrROS_Hall] | 2.66 ± 0.16 kcal/mol
SAGGSASIEIPFNGHPYKIEIDDVEPPDEQYRAKAEIRFPGNGKKIPVEGDMPKSDAEDAIKEAIRSAGGSA [r15_944_TrROS] | -0.527 ± 0.19 kcal/mol

assay: folding stability dG unfold (combined trypsin and chymotrypsin); higher = more stable
Outline: as §1

Sequence | folding stability dG unfold
SAGGSAGGSAGGDENDYYMVEIPIWRRNENGGWEPIFPIPIMVPKGAPKDVAKDILNNLSAGGSAGGSAGGS [r10_470_TrROS] | 0.382 ± 0.085 kcal/mol
SAGGSAGGSAGSFLIVVRFPNSTVLFDAPEDTDVDALKKAIKKLFNADIEVEVVPKEKPLSAGGSAGGSAGG [r11_805_TrMRF] | 1.79 ± 0.093 kcal/mol
SAGGSAGGSAGGSGAGTLITVTVGGKEVPVTVDPSSDRVSITLPEPTSLTLSVEDPARASAGGSAGGSAGGS [r10_1185_JUSTAS] | 0.208 ± 0.17 kcal/mol
SAGGSAIPFPPGAKVKKIEMHEKKDDNKPRYVMIIKWEGGNIMVFQMDPGDGNFKPIGWVPLDDLKSAGGSA [r15_777_TrROS] | 1.95 ± 0.12 kcal/mol
SAGGSLEEVARALARELGLPDVEVRDIPVEVLPNGTVRIPVTIVRPEAGEPLPPLEVELAPDEPLLSAGGSA [r2_137_JUSTAS] | -0.198 ± 0.14 kcal/mol
SAGGSAGGSAGKLKIKSVITFESEDDLIVKLIEVDDKVFAIVLDPKTGKPVKIIPDNEIFSAGGSAGGSAGG [r11_851_TrMRF] | 0.873 ± 0.18 kcal/mol
SKKKKIIKIDIKPEDIEKGIKAVREAIKKAKEAEPDTEVIIDFHFESDYPEKVKEIEDLFKKENIPLKIGSA [r9_1202_TrMRF] | 1.31 ± 0.18 kcal/mol
SAGGSAGGSASMTSSVSTSLNPDNPPVVLVTTTYPDGTVTLTVKDLSTGTTTSTTTTPLPSSAGGSAGGSAG [r3_299_JUSTAS] | 0.893 ± 0.059 kcal/mol
SAGMTIRIVVPKKDMSVEELAKKLKEELGLPEDAKVTIKVEKLPNGELVLTITVPSEEERKKIEELLKSAGG [r19_215_TrROS_Hall] | 2.98 ± 0.25 kcal/mol
SAGGEKVVLEIVLPPELENLTPEELEALKNITLPNGFKITDIELVEENGRLVIRITVDSPEAAEALLKSAGG [r13_269_TrROS_Hall] | 2.19 ± 0.22 kcal/mol
SAGGGKKNKIVAVDEEGNEIVFDIDADIDTVFEAIKKLFPNKEIEVDEVIEFEGYPDYVVVFVKIPKKSAGG [r13_832_TrMRF] | 2.22 ± 0.22 kcal/mol
SAGGSAKKPKPIYLKLTITLSEEEAKKLAEELAEELKKLFPDVEIVEIKVEKDENGNVTVTIYVRLSAGGSA [r15_718_TrROS_Hall] | 4.25 ± 0.28 kcal/mol
GLAPRVYEVDALVTDENGVPRLYRVLVVETPLPDGTYRAVAFARDLDTTETRVLTLVSDRAVIGPDVPLTAS [r1_14_TrMRF] | 2.21 ± 0.15 kcal/mol
SALDAKEIAEEFMKKFPPNFRDITVDVENTGNKRKIKIMFRMPNRYWTQEFDLDDGKIEIEPINPGQPLSAG [r14_737_TrROS] | 0.672 ± 0.066 kcal/mol
SADIKIDVTYRRSPGEGRYTMTVRVELPDGKKLAEIPITMPADDPGMSPRQMREWARPIVKKLAKEGLISAG [r14_120_TrROS] | 0.889 ± 0.08 kcal/mol
SAGGMKVEVEVDPETGELYLKIYFPETGEVALVKIDPKTKTAEVVGSTDFVKEALPELGINNPTLVPGSAGG [r13_511_TrMRF] | 1.43 ± 0.061 kcal/mol

Sequence | folding stability dG unfold
SAGGSAGGSAGGKEPKKVKVYLFNENGELIGVFELEVETLEELEEAVRKLGFLAVVEPESAGGSAGGSAGGS [r10_958_TrMRF] | 4.4 ± 0.077 kcal/mol
SAGGSAGGSAGKIVILVEPSVEELKAAAEALPGAKVTLEEVEVDGRKYLLATIELPPELLSAGGSAGGSAGG [r17_542_TrROS_Hall] | 2.23 ± 0.07 kcal/mol
SEIEIEPLTLDEPVEYRVPEGGFTITAYAAPGPLLVRVRIPGTGEEFEIAVPLGEPNWEEVAEAVVRAIRSA [r9_982_TrMRF] | 1.56 ± 0.058 kcal/mol
SAGGSAGGSPSVPPEWKVEIVEVTVHPDGSTVTAVIRFEDGSTVTVNSPEALARLVEGGNVVNSAGGSAGGS [r12_455_TrMRF] | 1.51 ± 0.14 kcal/mol
SAGGPPVTIMIRLPPLQEQLPPEWLEKLKNIRVPNGHPIKDIDVQPHNGRWVIMIKVDSPEQARDIIRSAGG [r13_269_TrROS] | 1.75 ± 0.13 kcal/mol
SAGGAMSSPVGTVTLTSPAGETVTITVYPGKTEVTTRPPDGSVTVTSLADKSVEEVIAELKAEGYEVLSSAG [r5_613_JUSTAS] | 3.25 ± 0.039 kcal/mol
SAGGSAGGSAGGSMIVLNVPREVAEKIKEELIKKGIDPEKVKVIYIEVPLPEEPPESILSAGGSAGGSAGGS [r10_602_JUSTAS] | 0.548 ± 0.16 kcal/mol
SAGGKNLKPIGTVTLTNPKGEKVEIVEFEGPVFVVLTPKDGSKKIVSAEGKSLEEILKELEKEGYEVEPSAG [r5_613_TrMRF] | 1.76 ± 0.15 kcal/mol
SAGGSAAPEDTLVEEEVEIVTEETDPKLGGKKIVTTKVKRLIRYFPEKGELEVETVETETTVYPNESAGGSA [r15_517_JUSTAS] | 0.111 ± 0.1 kcal/mol
SAGGSAGGSTLRLRFRTPDGRLFEIEAEVRPDPDGRVYRLLRIREYDPETDEWLERPFRLPILSAGGSAGGS [r12_57_TrMRF] | 3.82 ± 0.056 kcal/mol
KKKTIEIIFPENNLIIKIEVDEETGKELTEEEIKKLLEELFPGKDIEKMSIEEIAKRLASLPGVKKVEIYPS [r1_463_TrROS_Hall] | 2.46 ± 0.1 kcal/mol
SAGGSAGGSAGGYSAIIIFPTEFDNKLYYAAVELESPSEELHEGDIKSVILAPLNTPILSAGGSAGGSAGGS [r10_730_TrMRF] | 1.64 ± 0.046 kcal/mol
SAGGSAGGSAKKITIYLPNAEVVEVEYDEETDVITIRVKNEDGSEYEFRFYPDGSVEIRPVSAGGSAGGSAG [r3_348_TrROS_Hall] | 3.4 ± 0.14 kcal/mol
SAGGKEVKIKIETKTLPNGVKVVKMTVELPDGKTVEMVMVENKKTGKMVMFEVKLDKNGKIVEIKAFPSAGG [r13_323_TrROS_Hall] | 3.33 ± 0.41 kcal/mol
SAGGSASIEIPFNGHPYKIEIDDVEPPDEQYRAKAEIRFPGNGKKIPVEGDMPKSDAEDAIKEAIRSAGGSA [r15_944_TrROS] | 0.362 ± 0.25 kcal/mol
